This note sets out measurements from US20130281677A1 (CEPHALON AUSTRALIA, published 2013).

For test [1], the target named is T1, human FcRn extracellular domain / beta2 microglobulin complex (human, UniProt P55899 24-290; P61769 21-119).
T1 construct: range 24-290;range 21-119; Both chains were co-expressed in HEK293 6E cells and purified on IgG-Sepharose; In the ELISA the complex was captured by a coated anti-β2 microglobulin antibody at pH 6.0; also called FcRn/β2 microglobulin complex
The test is described as follows: ELISA, pH 6.0; FcRn/β2m complex captured by anti-β2m antibody, antibody titrated, anti-human kappa HRP detection. (ELISA stands for enzyme-linked immunosorbent assay.)
Experimental: (§1) Maxisorp 96-well plates (Thermo Fisher Scientific, Rochester, N.Y.) were coated with 5 ug/ml anti-β₂ microglobulin monoclonal antibody. Wells were then washed with PBS and treated with Superblock blocking solution (Thermo Fisher Scientific, Rockford, Ill.). Then, the FcRn/β₂ microglobulin complex was diluted to 5 ug/ml in SPBS6T (50 mM sodium phosphate buffer pH 6.0, 150 mM NaCl, 0.05% Tween-20) and added to allow for capture by the coated anti-β₂ microglobulin antibody for 60 min at room temperature. Wells were then washed by SPBS6T and then exposed to hu39D10 or its the variants in SPBS6T and incubated for 60 min at room temperature. The hu39D10/FcRn complex formed by the incubation was probed with an F(ab′)2 fragment of an anti-human kappa HRP conjugate (SourthernBiotechnology, Birmingham, Ala.; 1/5000 dilution in SPBS6T) for 30 min at room temperature. After washing with SPBS6T, 100 ul of TMB (Sigma) was loaded into each well for signal detection. […] The affinity of the IgG variants to FcRn was calculated and plotted using Prism software by GraphPad Software (La Jolla, Calif.).

For test [2], the target named is T1, human FcRn extracellular domain / beta2 …. The test is described as follows: ELISA, pH 6.0; ratio of EC50 values against hu39D10 with native IgG4 Fc.
Experimental: as §1

T1 sequence (P55899 24-290 limits assumed, form in doubt, chain 1 of 2): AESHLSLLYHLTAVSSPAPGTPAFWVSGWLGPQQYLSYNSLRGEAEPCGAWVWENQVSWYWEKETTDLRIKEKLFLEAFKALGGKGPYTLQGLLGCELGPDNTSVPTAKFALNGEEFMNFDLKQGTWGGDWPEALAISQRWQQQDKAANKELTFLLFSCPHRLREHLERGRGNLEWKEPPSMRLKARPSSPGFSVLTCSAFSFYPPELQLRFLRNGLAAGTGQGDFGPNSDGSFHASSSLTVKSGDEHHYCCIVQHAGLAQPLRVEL
T1 sequence (P61769 21-119 limits assumed, form in doubt, chain 2 of 2): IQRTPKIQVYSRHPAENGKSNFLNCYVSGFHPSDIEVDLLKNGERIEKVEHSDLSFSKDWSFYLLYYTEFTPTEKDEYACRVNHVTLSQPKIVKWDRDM

B1: hu39D10 (humanized 39D10, anti-IL-5 antibody) with native human IgG4 Fc / kappa (antibody)
heavy: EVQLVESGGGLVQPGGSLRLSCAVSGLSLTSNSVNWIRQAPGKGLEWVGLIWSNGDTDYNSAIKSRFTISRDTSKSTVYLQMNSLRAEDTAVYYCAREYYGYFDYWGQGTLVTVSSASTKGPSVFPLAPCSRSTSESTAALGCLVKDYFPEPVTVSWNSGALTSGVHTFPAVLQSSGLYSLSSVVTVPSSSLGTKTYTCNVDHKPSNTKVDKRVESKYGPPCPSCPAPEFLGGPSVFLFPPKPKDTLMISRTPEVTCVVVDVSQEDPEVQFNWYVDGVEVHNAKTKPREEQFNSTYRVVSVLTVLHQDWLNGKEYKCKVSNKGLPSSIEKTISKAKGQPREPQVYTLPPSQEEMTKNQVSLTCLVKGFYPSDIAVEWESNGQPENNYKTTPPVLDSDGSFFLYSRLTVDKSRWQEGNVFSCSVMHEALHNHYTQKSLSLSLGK
light: DIQMTQSPSSLSASVGDRVTITCLASEGISSYLAWYQQKPGKAPKLLIYGANSLQTGVPSRFSGSGSATDYTLTISSLQPEDFATYYCQQSYKFPNTFGQGTKVEVKRTVAAPSVFIFPPSDEQLKSGTASVVCLLNNFYPREAKVQWKVDNALQSGNSQESVTEQDSKDSTYSLSSTLTLSKADYEKHKVYACEVTHQGLSSPVTKSFNRGEC
notes: Full IgG4/kappa expressed in HEK293 6E cells; also called CTIL-5-10gH/-gL6; hu39D10 with unmodified Fc; not shown: human IgG4 heavy chain constant region, native (cloned from Quickclone cDNA library)
In general, EC50 refers to the concentration that produces a half-maximal response. B1: in test [1], the concentration for a half-maximal effect (EC50) turned out to be 3.8 nM.

B2: hu39D10 with the YTE mutations and the S228P hinge mutation (YTE+S228P) in IgG4 (antibody)
heavy: EVQLVESGGGLVQPGGSLRLSCAVSGLSLTSNSVNWIRQAPGKGLEWVGLIWSNGDTDYNSAIKSRFTISRDTSKSTVYLQMNSLRAEDTAVYYCAREYYGYFDYWGQGTLVTVSSASTKGPSVFPLAPCSRSTSESTAALGCLVKDYFPEPVTVSWNSGALTSGVHTFPAVLQSSGLYSLSSVVTVPSSSLGTKTYTCNVDHKPSNTKVDKRVESKYGPPCPPCPAPEFLGGPSVFLFPPKPKDTLYITREPEVTCVVVDVSQEDPEVQFNWYVDGVEVHNAKTKPREEQFNSTYRVVSVLTVLHQDWLNGKEYKCKVSNKGLPSSIEKTISKAKGQPREPQVYTLPPSQEEMTKNQVSLTCLVKGFYPSDIAVEWESNGQPENNYKTTPPVLDSDGSFFLYSRLTVDKSRWQEGNVFSCSVMHEALHNHYTQKSLSLSLGK
light: DIQMTQSPSSLSASVGDRVTITCLASEGISSYLAWYQQKPGKAPKLLIYGANSLQTGVPSRFSGSGSATDYTLTISSLQPEDFATYYCQQSYKFPNTFGQGTKVEVKRTVAAPSVFIFPPSDEQLKSGTASVVCLLNNFYPREAKVQWKVDNALQSGNSQESVTEQDSKDSTYSLSSTLTLSKADYEKHKVYACEVTHQGLSSPVTKSFNRGEC
notes: also called hu39D10 with the 4 amino acid substitutions; S228P+YTE variant
The molecule B2 gave an EC50 in test [1] of 0.81 nM. Against the preceding molecule, the EC50 is about 4.7-fold lower.

B3: hu39D10 with the YTE mutations (M252Y, S254T, T256E) in the IgG4 Fc (antibody, name in EU numbering)
heavy: EVQLVESGGGLVQPGGSLRLSCAVSGLSLTSNSVNWIRQAPGKGLEWVGLIWSNGDTDYNSAIKSRFTISRDTSKSTVYLQMNSLRAEDTAVYYCAREYYGYFDYWGQGTLVTVSSASTKGPSVFPLAPCSRSTSESTAALGCLVKDYFPEPVTVSWNSGALTSGVHTFPAVLQSSGLYSLSSVVTVPSSSLGTKTYTCNVDHKPSNTKVDKRVESKYGPPCPSCPAPEFLGGPSVFLFPPKPKDTLYITREPEVTCVVVDVSQEDPEVQFNWYVDGVEVHNAKTKPREEQFNSTYRVVSVLTVLHQDWLNGKEYKCKVSNKGLPSSIEKTISKAKGQPREPQVYTLPPSQEEMTKNQVSLTCLVKGFYPSDIAVEWESNGQPENNYKTTPPVLDSDGSFFLYSRLTVDKSRWQEGNVFSCSVMHEALHNHYTQKSLSLSLGK
light: DIQMTQSPSSLSASVGDRVTITCLASEGISSYLAWYQQKPGKAPKLLIYGANSLQTGVPSRFSGSGSATDYTLTISSLQPEDFATYYCQQSYKFPNTFGQGTKVEVKRTVAAPSVFIFPPSDEQLKSGTASVVCLLNNFYPREAKVQWKVDNALQSGNSQESVTEQDSKDSTYSLSSTLTLSKADYEKHKVYACEVTHQGLSSPVTKSFNRGEC
notes: domain: IgG4 heavy chain constant region; Substitution positions are EU numbers, not positions on the UniProt entry; also called hu39D10 YTE variant
In test [1], B3 displayed an EC50 of 0.81 nM. Moreover, the “fold increase in affinity for human FcRn against hu39D10” value in test [2] is 4.7 fold.
